Reference: patent CN101671397A (UNIV SICHUAN, dated 2010)

Experiments:
[1] = biological target: T1, epidermal growth factor receptor (EGFR) on human lung cancer cell line A549 (human, UniProt P00533 25-1210); assay: flow cytometry on cells (A549), detected with rabbit antiserum and goat anti-rabbit IgG-FITC
T1 construct: whole, on cells; also called 表皮生长因子受体

[2] = biological target: T1, epidermal growth factor receptor (EGFR) …; assay: immunofluorescence and flow cytometry on A549 cells (summary)

B1: recombinant Gelonin (重组Gelonin) (enzyme)
chain: GLDTVSFSTKGATYITYVNFLNELRVKLKPEGNSHGIPLLRKKCDDPGKCFVLVALSNDNGQLAEIAIDVTSVYVVGYQVRNRSYFFKDAPDAAYEGLFKNTIKTRLHFGGSYPSLEGEKAYRETTDLGIEPLRIGIKKLDENAIDNYKPTEIASSLLVVIQMVSEAARFTFIENQIRNNFQQRIRPANNTISLENKWGKLSFQIRTSGANGMFSEAVELERANGKKYYVTAVDQVKPKIALLKFVDKDPK
notes: also called rGel
- binding result [1]: no binding (tested: 100umol/L)

B2: SCFV(Anti-EGFR)/Gelonin recombinant immunotoxin (抗EGFR单链抗体融合Gelonin重组免疫毒素) (other)
chain: EVQLQQSGAELMKPGASVKISCKATGYTFSSYWIEWVKQRPGHGLEWIGEILPGSKKTNYNEKFKGKATFTADTSSNTAYMQFSSLTSEDSAVYYCARYYYRNDDYGMDYWGQGTTVTVSSGGGGSGGGGSGGGGSDIVMSQSPKSMSMSVGERVTLTCKASENVVTYVSWYQQKPEQSPKLLIYGASNRYTGVPDRFTGSGSATDFTLTISSVQAEDLADYHCGQGCSYPYTFGGGTKLEIKGSGGGGSGGGGSGLDTVSFSTKGATYITYVNFLNELRVKLKPEGNSHGIPLLRKKCDDPGKCFVLVALSNDNGQLAEIAIDVTSVYVVGYQVRNRSYFFKDAPDAAYEGLFKNTIKTRLHFGGSYPSLEGEKAYRETTDLGIEPLRIGIKKLDENAIDNYKPTEIASSLLVVIQMVSEAARFTFIENQIRNNFQQRIRPANNTISLENKWGKLSFQIRTSGANGMFSEAVELERANGKKYYVTAVDQVKPKIALLKFVDKDPK
notes: also called ScFv(Anti-EGFR)/rGel
- binding result [2]: binds
